{"source": "paper PMC2628467", "origin": "cited, not measured here", "target": "RNase H folding intermediate mimic (Escherichia coli) (UniProt P0A7Y4)"}
{"substance": "RNase H folding intermediate mimic (from UniProt P0A7Y4)", "values": [{"measurement": "Kd", "value": 500, "unit": "nM"}]}
